# B1: TRIM55 (parent)
# chain: FQASNPYLPTRGGTTMASGGRFRC
# B2: SOAT1 (parent)
# chain: PSNGRIDIKQLIAKKIKLTAEAEE
# Variants of: B1
# Experiment: protein stability index of a GFP-peptide fusion (GPS, HEK-293T) (PSI 1-6); higher = more stable
# Settings: c terminus: a fixed tail appended
# 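Note: lentivirally expressed fusions sorted by FACS into six bins by GFP to DsRed ratio, PSI derived from sequencing read proportions per bin multiplied by bin number.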
row,Variant,protein stability index
1,G20I,1.73
2,G20R,1.96
3,G20Q,1.68
4,G20L,2.24
5,G20W,2.07
6,G20K,2.1
7,G20A,2.62
8,G20M,3.49
9,G20V,1.77
10,G20D,1.72
11,G20S,1.34
12,G20C,1.6
13,G20T,1.71
14,G20Y,1.63
15,G20H,1.66
16,G20E,1.97
17,G20F,1.53
18,G20N,1.72
19,G20P,2.19
20,T14G,1.67
21,T14I,2
22,T14C,2.23
23,T14S,2.11
24,T14D,1.27

row,Variant,protein stability index
1,T14N,1.73
2,T14F,1.5
3,T14R,1.41
4,T14P,2.47
5,T14H,1.37
6,T14V,1.54
7,T14K,2.3
8,T14M,2.32
9,T14L,2.34
10,T14A,1.93
11,T14Q,2.52
12,T14Y,1.5
13,T14E,2.09
14,T14W,1.32
15,C24H,2.08
16,C24M,1.37
17,C24A,2.21
18,C24P,1.41
19,C24Q,2.22
20,C24R,1.5
21,C24W,1.94
22,C24I,2.03
23,C24D,2.6
24,C24E,2.51

row,Variant,protein stability index
1,C24K,2.47
2,C24G,2.19
3,C24N,3.51
4,C24Y,1.62
5,C24L,1.57
6,C24S,1.43
7,C24V,1.76
8,C24T,2
9,C24F,2.23
10,T15V,2.54
11,T15H,1.18
12,T15R,2.93
13,T15F,1.57
14,T15S,1.69
15,T15E,1.48
16,T15I,1.88
17,T15N,2.3
18,T15W,1.75
19,T15Y,1.73
20,T15M,1.72
21,T15C,1.28
22,T15G,2.85
23,T15A,2.24
24,T15L,1.69

row,Variant,protein stability index
1,T15Q,1.65
2,T15D,1.75
3,T15K,2.19
4,T15P,1.52
5,A17E,2.52
6,A17K,1.79
7,A17S,2.14
8,A17W,1.76
9,A17H,1.85
10,A17T,1.84
11,A17Q,2.02
12,A17Y,2.11
13,A17C,2.24
14,A17P,1.76
15,A17I,1.08
16,A17N,2.27
17,A17F,1.88
18,A17R,2.27
19,A17D,1.76
20,A17L,2.54
21,A17G,1.45
22,A17V,3.21
23,A17M,1.93
24,G13K,2.74

row,Variant,protein stability index
1,G13V,1.9
2,G13I,1.99
3,G13W,3.33
4,G13C,1.65
5,G13E,1.46
6,G13F,1.22
7,G13Y,1.51
8,G13T,1.65
9,G13Q,2.68
10,G13N,1.22
11,G13S,1.75
12,G13R,1.7
13,G13M,2.65
14,G13P,1.7
15,G13L,3.49
16,G13D,1.64
17,G13H,2.32
18,G13A,1.68
19,M16A,1.57
20,M16W,1.42
21,M16L,1.79
22,M16P,2.92
23,M16V,1.27
24,M16I,2.83

row,Variant,protein stability index
1,M16G,2.5
2,M16N,2.02
3,M16E,1.12
4,M16C,1.77
5,M16K,3.34
6,M16D,1.65
7,M16Q,1.57
8,M16F,1.76
9,M16S,2.67
10,M16H,1.69
11,M16Y,1.98
12,M16R,1.86
13,M16T,1.99
14,S18T,2.23
15,S18F,1.95
16,S18M,2.51
17,S18Q,2.07
18,S18K,3.05
19,S18Y,2.22
20,S18H,1.57
21,S18L,2.45
22,S18P,1.79
23,S18D,2.09
24,S18I,1.48

row,Variant,protein stability index
1,S18V,1.21
2,S18R,2.24
3,S18G,2.35
4,S18E,2.22
5,S18N,2.19
6,S18A,1.97
7,S18C,1.35
8,G12T,2.13
9,G12Q,1.34
10,G12S,2.61
11,G12P,1.55
12,G12N,1.62
13,G12Y,1.81
14,G12L,2.67
15,G12I,2.77
16,G12W,2.35
17,G12R,2.79
18,G12V,3.34
19,G12M,1.05
20,R21C,2.35
21,R21F,1.71
22,R21N,2.49
23,R21Q,1.85
24,R21T,1.04

row,Variant,protein stability index
1,R21E,2.18
2,R21L,2.42
3,R21G,1.53
4,R21P,2.12
5,R21H,1.68
6,R21M,1.81
7,R21V,1.42
8,R21S,1.75
9,R21Y,1.68
10,R21D,1.81
11,R21I,1.42
12,R21A,1.18
13,R21K,3.08
14,G19D,2.06
15,G19Y,2.06
16,G19E,1.71
17,G19K,2.39
18,G19F,1.91
19,G19R,1.9
20,G19H,2.48
21,G19S,1.83
22,G19M,1.49
23,G19C,2.9
24,G19T,2.28

row,Variant,protein stability index
1,G19I,2.04
2,G19Q,2.06
3,G19L,2
4,G19P,1.83
5,G19V,2.07
6,G19W,1.63
7,G19A,1.7
8,G19N,1.77
9,R23D,2.02
10,R23Y,2.5
11,R23H,1.56
12,R23P,2.91
13,R23L,2.98
14,R23A,2.37
15,R23T,1.64
16,R23F,1.51
17,R23N,1.48
18,R23K,2.1
19,R23M,1.61
20,R23E,1.99
21,R23C,2.9
22,R23S,1.8
23,R23I,1.62
24,R23Q,1.71

row,Variant,protein stability index
1,R23G,1.6
2,R23V,1.88
3,F22A,1.42
4,F22C,2.18
5,F22E,2.46
6,F22S,1.75
7,F22K,2.61
8,F22V,1.38
9,F22W,2.51
10,F22N,2.14
11,F22D,1.41
12,F22G,1.43
13,F22T,1.8
14,F22M,2.25
15,F22Q,3.22
16,F22R,2.13
17,F22H,2.29
18,F22Y,2.47
19,F22I,1.57
20,F22P,3.87

# Variants of: B2
# Experiment: as above
# Settings: c terminus: a fixed tail appended
row,Variant,protein stability index
1,G4M,3.61
2,G4P,4.09
3,G4L,3.48
4,G4E,4.39
5,K9G,3.39
6,K9F,2.06
7,K9W,2.02
8,K9Y,3.03
9,K9E,4.03
10,Q10H,2.57
11,Q10C,3.19
12,Q10L,3.18
13,Q10G,3.59
14,Q10R,2.7
15,Q10M,2.67
16,L11G,3.75
17,L11W,3.67
18,L11K,3.68
19,L11E,4.15
20,L11Q,3.58
21,L11S,3.75
22,L11V,3.57
23,K15Y,2.69
24,K15I,2.48
25,K15L,1.87

row,Variant,protein stability index
1,E23V,2.3
2,E23Q,2.35
3,E23N,2.93
4,E23M,2.06
5,E23T,3.13
6,E23G,2.98
7,A22N,3.32
8,A22M,3
9,A22V,2.94
10,A22I,2.59
11,K17P,3.84
12,K17V,3.38
13,K17W,2.53
14,I16S,3.9
15,I16W,3.18
16,I16F,2.97
17,A13E,3.56
18,A13Q,3.47
19,A13V,2.84
20,A13I,3.3
21,A13R,3.57
22,A13P,3.94
23,D7S,3.58
24,D7L,3.38
25,D7F,2.83

row,Variant,protein stability index
1,N3R,3.93
2,L18E,4.14
3,L18A,3.62
4,L18K,3.23
5,L18M,3.27
6,L18D,4.13
7,L18C,3.67
8,L18V,3.53
9,L18H,3.69
10,I6R,3.4
11,S2T,3.79
12,S2G,3.64
13,S2H,3.01
14,S2M,3.11
15,S2A,2.88
16,E21G,2.63
17,E24C,3.19
18,E24I,2.27
19,E24L,3.11
20,E24V,2.48
21,E24A,2.78
22,E24Q,2.95
23,T19P,3.4
24,T19G,3.17
25,T19L,2.15

row,Variant,protein stability index
1,R5S,3.75
2,R5G,4.04
3,R5W,3.48
4,R5C,3.66
5,R5A,3.95
6,A20M,2.71
7,A20T,3.47
8,A20W,2.66
9,I12S,3.82
10,I12H,3.89
11,I12G,3.9
12,I12A,3.53
13,I12F,3.5
14,P1D,3.27
15,P1K,3.04
16,P1I,3.57
17,P1H,3.24
18,I8T,4.48
19,I8Y,4.13
20,I8R,4.06
21,K14W,3.07
22,K14V,2.98
23,K14Y,2.62

# Reference: the supplement of paper PMC10567573
